Data set [1] deals with the molecule itself. Put plainly: SEC; purified variants; single peak, retention time 12.5 min, calculated Mw 150 kDa; data not shown.
Data set [2] concerns the molecule itself. Put plainly: SAXS; rBHT(23–594)-HIS in solution at 1 mg/mL and 4 mg/mL; molecular mass by the method of Rambo and Tainer.

B1: rBHT(57–594)-HIS, recombinant ß-hexosyltransferase from Hamamotoa (Sporobolomyces) singularis, residues 57–594 (enzyme, UniProt Q564N5 57-594, looked up)
chain: AELDALWNLVEAQYPVQTAAVTTLVTVPDDYKFEADPPSYALAGYETSEIAGLKFPKGFKFGVAGAAIQVEGAAKAEGRGPSTWDYLCHHYASTQCNNYDPDITTNHYYLYPLDFARLQHLGINTYSFSISWTRIYPLGAGYVNEAGLAHYDAVIHSAKKYGLEPVGTVFHWDTPLSLMLKYGAWQDTGDQIVKDFVTYATTVFKRYGNEVKTWFTFNEPRVFCSQNSGLPYNLTYPEGINSTSAVFRCTYNVLKAHGHAVKVYRDLVASGTIAAGEIGFKSDDNYPIPARPGNADDEESAKRHEAFRIGIFAQPVYGNGDYPDVVKETVGDMLPALTDEDKGYIKGSGDIFAIDGYRTDISHAALNGIANCIRNQSDPNWPVCEEGSDPFAHVYPSGFAIGQSADPLSSWLVNSAPFIRDQLKFLTQTYPAKGGIYFSEFGWAEDAEYDRQLLYQITWDGLRTQYLTDYLSQLLLAVHKDGINLRGALTWSFVDNWEWGLGMQQKFGFQFVNQSDPDLTRTFKLSAHAYAQFGRNHL
notes: ß-hexosyltransferase (BHT, BglA) of Hamamotoa (Sporobolomyces) singularis, 594-residue polypeptide, residues 57-594; Expressed behind the MFα pre-pro leader of pPIC9 (primer encodes KR-EAEA before residue 57; leftover leader residues are a surmise); Glycosylated enzyme; also called GS115::MFα-rBht(57–594)-HIS; JB225; not shown: His6, C-terminal, kept
Consider B1, for which the “stoichiometry N” value in data set [1] was 2.

B2: rBHT(54–594)-HIS, recombinant ß-hexosyltransferase from Hamamotoa (Sporobolomyces) singularis, residues 54–594 (enzyme, UniProt Q564N5 54-594, looked up)
chain: TGTAELDALWNLVEAQYPVQTAAVTTLVTVPDDYKFEADPPSYALAGYETSEIAGLKFPKGFKFGVAGAAIQVEGAAKAEGRGPSTWDYLCHHYASTQCNNYDPDITTNHYYLYPLDFARLQHLGINTYSFSISWTRIYPLGAGYVNEAGLAHYDAVIHSAKKYGLEPVGTVFHWDTPLSLMLKYGAWQDTGDQIVKDFVTYATTVFKRYGNEVKTWFTFNEPRVFCSQNSGLPYNLTYPEGINSTSAVFRCTYNVLKAHGHAVKVYRDLVASGTIAAGEIGFKSDDNYPIPARPGNADDEESAKRHEAFRIGIFAQPVYGNGDYPDVVKETVGDMLPALTDEDKGYIKGSGDIFAIDGYRTDISHAALNGIANCIRNQSDPNWPVCEEGSDPFAHVYPSGFAIGQSADPLSSWLVNSAPFIRDQLKFLTQTYPAKGGIYFSEFGWAEDAEYDRQLLYQITWDGLRTQYLTDYLSQLLLAVHKDGINLRGALTWSFVDNWEWGLGMQQKFGFQFVNQSDPDLTRTFKLSAHAYAQFGRNHL
notes: ß-hexosyltransferase (BHT, BglA) of Hamamotoa (Sporobolomyces) singularis, 594-residue polypeptide, residues 54-594; Expressed behind the MFα pre-pro leader of pPIC9 (primer encodes KR-EAEA before residue 54; leftover leader residues are a surmise); Glycosylated enzyme; also called GS115::MFα-rBht(54–594)-HIS; JB224; not shown: His6, C-terminal, kept
Turning to B2, the “stoichiometry N” value in data set [1] was 2.

B3: rBHT(23–594)-HIS, recombinant ß-hexosyltransferase from Hamamotoa (Sporobolomyces) singularis, residues 23–594 (enzyme, UniProt Q564N5 23-594, looked up)
chain: VTYPGAIPLSLTSNYETPSPTAIPLEPTPTATGTAELDALWNLVEAQYPVQTAAVTTLVTVPDDYKFEADPPSYALAGYETSEIAGLKFPKGFKFGVAGAAIQVEGAAKAEGRGPSTWDYLCHHYASTQCNNYDPDITTNHYYLYPLDFARLQHLGINTYSFSISWTRIYPLGAGYVNEAGLAHYDAVIHSAKKYGLEPVGTVFHWDTPLSLMLKYGAWQDTGDQIVKDFVTYATTVFKRYGNEVKTWFTFNEPRVFCSQNSGLPYNLTYPEGINSTSAVFRCTYNVLKAHGHAVKVYRDLVASGTIAAGEIGFKSDDNYPIPARPGNADDEESAKRHEAFRIGIFAQPVYGNGDYPDVVKETVGDMLPALTDEDKGYIKGSGDIFAIDGYRTDISHAALNGIANCIRNQSDPNWPVCEEGSDPFAHVYPSGFAIGQSADPLSSWLVNSAPFIRDQLKFLTQTYPAKGGIYFSEFGWAEDAEYDRQLLYQITWDGLRTQYLTDYLSQLLLAVHKDGINLRGALTWSFVDNWEWGLGMQQKFGFQFVNQSDPDLTRTFKLSAHAYAQFGRNHL
modifications: N-glycosylation sites N289, N297, N431, N569 (NAG in the crystal structure); phosphorylation sites found in the crystal structure: T56, T74, T79
notes: Expressed behind the S. cerevisiae alpha factor pre-pro leader (MFα) of pPIC9; the forward primer encodes KR-EAEA before residue 23, so some leader residues (EAEA) may be left on the N-terminus after processing (surmise); Residues 23-53 lack electron density in PDB 7L74; also called rBHT(23–594)-6XHIS; BglA; source: K. phaffii GS115, secreted into the culture medium, purified (HISTrap HP Nickel …)
B3: the “stoichiometry N” value in data set [2] turned out to be 2.

B4: rBHT(32–594)-HIS, recombinant ß-hexosyltransferase from Hamamotoa (Sporobolomyces) singularis, residues 32–594 (enzyme, UniProt Q564N5 32-594, looked up)
chain: SLTSNYETPSPTAIPLEPTPTATGTAELDALWNLVEAQYPVQTAAVTTLVTVPDDYKFEADPPSYALAGYETSEIAGLKFPKGFKFGVAGAAIQVEGAAKAEGRGPSTWDYLCHHYASTQCNNYDPDITTNHYYLYPLDFARLQHLGINTYSFSISWTRIYPLGAGYVNEAGLAHYDAVIHSAKKYGLEPVGTVFHWDTPLSLMLKYGAWQDTGDQIVKDFVTYATTVFKRYGNEVKTWFTFNEPRVFCSQNSGLPYNLTYPEGINSTSAVFRCTYNVLKAHGHAVKVYRDLVASGTIAAGEIGFKSDDNYPIPARPGNADDEESAKRHEAFRIGIFAQPVYGNGDYPDVVKETVGDMLPALTDEDKGYIKGSGDIFAIDGYRTDISHAALNGIANCIRNQSDPNWPVCEEGSDPFAHVYPSGFAIGQSADPLSSWLVNSAPFIRDQLKFLTQTYPAKGGIYFSEFGWAEDAEYDRQLLYQITWDGLRTQYLTDYLSQLLLAVHKDGINLRGALTWSFVDNWEWGLGMQQKFGFQFVNQSDPDLTRTFKLSAHAYAQFGRNHL
notes: ß-hexosyltransferase (BHT, BglA) of Hamamotoa (Sporobolomyces) singularis, 594-residue polypeptide, residues 32-594; Expressed behind the MFα pre-pro leader of pPIC9 (primer encodes KR-EAEA before residue 32; leftover leader residues are a surmise); Glycosylated enzyme; also called GS115::MFα-rBht(32–594)-HIS; JB223; not shown: His6, C-terminal, kept
Consider B4, for which the “stoichiometry N” value in data set [1] is 2.

The term stoichiometry N denotes the number of molecules, sites or subunits per partner or assembly.
